B1: Cytochrome c biogenesis ATP-binding export protein CcmA (Escherichia coli (strain K12)), P33931 (parent)
chain: MGMLEARELLCERDERTLFSGLSFTLNAGEWVQITGSNGAGKTTLLRLLTGLSRPDAGEVLWQGQPLHQVRDSYHQNLLWIGHQPGIKTRLTALENLHFYHRDGDTAQCLEALAQAGLAGFEDIPVNQLSAGQQRRVALARLWLTRATLWILDEPFTAIDVNGVDRLTQRMAQHTEQGGIVILTTHQPLNVAESKIRRISLTQTRAA
partner: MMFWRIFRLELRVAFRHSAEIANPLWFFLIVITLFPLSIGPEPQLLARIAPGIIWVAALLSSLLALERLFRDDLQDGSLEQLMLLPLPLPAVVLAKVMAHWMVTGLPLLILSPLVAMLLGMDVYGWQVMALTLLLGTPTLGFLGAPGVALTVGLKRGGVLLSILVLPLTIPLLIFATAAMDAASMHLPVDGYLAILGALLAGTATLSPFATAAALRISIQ
B2: Cytochrome c biogenesis ATP-binding export protein CcmA (Escherichia coli (strain K12)), P33931 (parent)
chain: B1 chain
partner: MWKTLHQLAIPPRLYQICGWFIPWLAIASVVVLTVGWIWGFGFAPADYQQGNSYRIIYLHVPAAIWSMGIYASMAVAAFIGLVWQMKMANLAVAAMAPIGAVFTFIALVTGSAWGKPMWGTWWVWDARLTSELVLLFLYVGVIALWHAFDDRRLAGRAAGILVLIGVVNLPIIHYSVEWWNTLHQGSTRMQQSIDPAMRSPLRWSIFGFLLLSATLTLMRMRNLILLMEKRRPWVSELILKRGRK

Variants of: B1
Details: with ccmb_ecoli ccmB

effect of a mutation on the interaction | Variant
with no effect | MGMLEARELLCERDERTLFSGLSFTLNAGEWVQITGSNGAGKTTLLRLLTGLSRPDAGEVLWQGQPLHQVRDSYHQNLLWIGHQPGIKTRLTALENLHFYHRDGDTAQCLEALAQAGLAGFEDIPVNQLSAAQQRRVALARLWLTRATLWILDEPFTAIDVNGVDRLTQRMAQHTEQGGIVILTTHQPLNVAESKIRRISLTQTRAA [G132A]

Variants of: B2
Details: with ccmc_ecoli ccmC

effect of a mutation on the interaction | Variant
with no effect | MGMLEARELLCERDERTLFSGLSFTLNAGEWVQITGSNGAGKTTLLRLLTGLSRPDAGEVLWQGQPLHQVRDSYHQNLLWIGHQPGIKTRLTALENLHFYHRDGDTAQCLEALAQAGLAGFEDIPVNQLSAAQQRRVALARLWLTRATLWILDEPFTAIDVNGVDRLTQRMAQHTEQGGIVILTTHQPLNVAESKIRRISLTQTRAA [G132A]
